Source: IntAct's records for PubMed 15226396

B1: Tyrosine-protein phosphatase non-receptor type 1 (Gallus gallus (Chicken)), O13016 (parent)
chain: MEIEKEFHRLDQAASWAAIYQDIRHEASDFPCKVAKHPRNKNRNRYRDVSPFDHSRIKLNQGDNDYINASLIKMEEAQRSYILTQGPLPNTCGHFWEMVWEQKSRGVVMLNRVMEKGSIKCAQYWPRKEEKEMFFEDTNLKLTLISEDIKSYYTVRQLELENLTTQETREILHFHYTTWPDFGVPESPASFLNFLFKVRESGSLNPEYGPVVVHCSAGIGRSGTFCLVDTCLLLMDKRKDPSSVDVKQVLLEMRKYRMGLIQTADQLRFSYLAVIEGAKFIMGDASVQEQWKELSNEDLDPPPEHTPPPPRPPKRTSEMHNGRMHEHAEFFPKHQVVEEEIRCSVSTAEETVSDGRVFSSVPLITDSTSQDTEIRRRTVGENLHVTAHKEESKSESVEEDDENMMTTWKPFLVNICMFTFLTAGAYLCYRVCFH

Variants of: B1
Conditions: with fer_human FER

effect of a mutation on the interaction | Variant
disrupting interaction | MEIEKEFHRLDQAASWAAIYQDIRHEASDFPCKVAKHPRNKNRNRYRDVSPFDHSRIKLNQGDNDYINASLIKMEEAQRSYILTQGPLPNTCGHFWEMVWEQKSRGVVMLNRVMEKGSIKCAQYWPRKEEKEMFFEDTNLKLTLISEDIKSYYTVRQLELENLTTQETREILHFHYTTWPDFGVPESPASFLNFLFKVRESGSLNPEYGPVVVHSSAGIGRSGTFCLVDTCLLLMDKRKDPSSVDVKQVLLEMRKYRMGLIQTADQLRFSYLAVIEGAKFIMGDASVQEQWKELSNEDLDPPPEHTPPPPRPPKRTSEMHNGRMHEHAEFFPKHQVVEEEIRCSVSTAEETVSDGRVFSSVPLITDSTSQDTEIRRRTVGENLHVTAHKEESKSESVEEDDENMMTTWKPFLVNICMFTFLTAGAYLCYRVCFH [C215S]
disrupting interaction | MEIEKEFHRLDQAASWAAIYQDIRHEASDFPCKVAKHPRNKNRNRYRDVSPFDHSRIKLNQGDNDYINASLIKMEEAQRSYILTQGPLPNTCGHFWEMVWEQKSRGVVMLNRVMEKGSIKCAQYWPRKEEKEMFFEDTNLKLTLISEDIKSFYTVRQLELENLTTQETREILHFHYTTWPDFGVPESPASFLNFLFKVRESGSLNPEYGPVVVHCSAGIGRSGTFCLVDTCLLLMDKRKDPSSVDVKQVLLEMRKYRMGLIQTADQLRFSYLAVIEGAKFIMGDASVQEQWKELSNEDLDPPPEHTPPPPRPPKRTSEMHNGRMHEHAEFFPKHQVVEEEIRCSVSTAEETVSDGRVFSSVPLITDSTSQDTEIRRRTVGENLHVTAHKEESKSESVEEDDENMMTTWKPFLVNICMFTFLTAGAYLCYRVCFH [Y152F]
